Each block holds one binder with its values, some of them ahead of it.
Key:
[1] = target: TCRs of the MBP-69-89 specific short-term T cell line (Lewis rat) (rat); assay: cell-based or functional assay
[2] = target: TCR of the rat Vβ8.2+ T cell hybridoma C14/BW12-12A1 (A1), specific for Gp-BP-72-89 (rat); assay: flow cytometry, direct binding study on A1 hybridoma
[3] = target: TCR of the rat Vβ8.2+ T cell hybridoma C14/BW12-12A1 (A1), specific for Gp-BP-72-89 (rat); assay: flow cytometry, A1 hybridoma with 10 µM complex 17 h at 4 C, detected with OX6-PE
[4] = target: TCR of the cardiac myosin CM-2-specific cell line (rat); assay: flow cytometry, CM-2 line (blocked with unconjugated OX6) with 10 µM complex 17 h at 4 C, detected with OX6-PE
[5] = target: TCR of the rat Vβ8.2+ T cell hybridoma C14/BW12-12A1 (A1), specific for Gp-BP-72-89 (rat); assay: flow cytometry, directly labelled complex on A1 hybridomas, 3 h at 4 C

inhibition of proliferation of the T cell line to MBP-69-89 + APC after pre-treatment with 10 nM complex [1]: > 90% | fold increase in MFI over background [2]: 10 fold | mean fluorescence intensity (MFI) [3]: 800 Units
B1: β1α1/MBP-69-89 complex (rat RT1.B β1α1 construct loaded with MBP-69-89 peptide) (peptide-MHC)
chain: MGRDSPRDFVYQFKGLCYYTNGTQRIRDVIRYIYNQEEYLRYDSDVGEYRALTELGRPSAEYFNKQYLEQTRAELDTVCRHNYEGSEVRTSLRRLGGQDDIEADHVAAYGINMYQYYESRGQFTHEFDGDEEFYVDLDKKETIWRIPEFGQLTSFDPQGGLQNIAIIKHNLEILMKRSNSTQAVN
peptide: GSLPQKSQRSQDENPVVHF

inhibition of proliferation of the T cell line to MBP-69-89 + APC after pre-incubation with 20 µM complex [1]: 27%
B2: β1α1/MBP-55-69 complex (rat RT1.B β1α1 with Gp-MBP-55-69 peptide) (peptide-MHC)
chain: B1 chain
peptide: SGKDSHHAARTTHYG

Second part, the binder before the results:

B3: β1α1/CM-2 complex (rat RT1.B β1α1 construct loaded with cardiac myosin peptide CM-2) (peptide-MHC)
chain: B1 chain
peptide: KLELQSALEEAEASLEH
mean fluorescence intensity (MFI) [4]: 1800 Units

B4: A488-β1α1/MBP-69-89 (Alexa-488 conjugated rat β1α1 loaded with MBP-69-89) (peptide-MHC)
chain: B1 chain
peptide: GSLPQKSQRSQDENPVVHF
modifications: Alexa-488 dye conjugated, molar ratio dye/protein=1; site not stated
MCI [5]: 300 Units
